Data on one substance can be found in US4771127A (priority 1985, dated 1988).

For data set [1] the following is noted: rabbit, in vivo, iv.
The next data set relates to mice. The note with it: mouse, in vivo, ip.
The test system of a further data set is specific IgG antibody. More on the design: species or system rabbits. To be noted: rabbit, in vivo.

With Tetanus Toxoid, the “Pyrogenicity (highest dose with rise in body temperature ≤ +0.3° C.)” value in data set [1] worked out at 50 ug/ml/kg body weight. In the data set with mice, the “Toxicity (class)” value is given as “Nontoxic (key: Nontoxic: a minimum of 50 ug of antigen administered intraperitoneally resulted in no mortality)”. Moreover, in the data set with specific IgG antibody, the Immunogenicity entry was “Immunogenic”.
